Measured values taken from IntAct's records for PubMed 21252223.

B1: Swi5-dependent recombination DNA repair protein 1 homolog (Homo sapiens), Q86XK3 (parent)
chain: MAEGEKNQDFTFKMESPSDSAVVLPSTPQASANPSSPYTNSSRKQPMSATLRERLRKTRFSFNSSYNVVKRLKVESEENDQTFSEKPASSTEENCLEFQESFKHIDSEFEENTNLKNTLKNLNVCESQSLDSGSCSALQNEFVSEKLPKQRLNAEKAKLVKQVQEKEDLLRRLKLVKMYRSKNDLSQLQLLIKKWRSCSQLLLYELQSAVSEENKKLSLTQLIDHYGLDDKLLHYNRSEEEFIDV
partner: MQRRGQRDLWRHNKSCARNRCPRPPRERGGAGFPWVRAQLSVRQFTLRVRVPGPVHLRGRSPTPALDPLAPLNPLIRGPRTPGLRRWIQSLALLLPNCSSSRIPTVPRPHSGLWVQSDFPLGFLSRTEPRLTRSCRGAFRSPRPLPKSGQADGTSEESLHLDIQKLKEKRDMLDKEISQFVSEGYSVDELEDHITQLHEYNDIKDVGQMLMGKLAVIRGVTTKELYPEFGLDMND

Variants of: B1
Details: with swi5_human SWI5, Q1ZZU3

Row | effect of a mutation on the interaction | Variant
1 | with no effect | L173P
